Test results reported in patent publication US20260258115A1.

B1: ADI-41280 (antibody, V domains shown)
VH: QVQLVESGPGLVKPSETLALTCTVSGGSLSTYYWSWIRQPPGKGLEWIGYIYYSGTTYYNPSLKSRVTISEDRSKNQFSLKLTSVTAADTAVYYCARHGPKTEFWSAQYYLELWGRGTLVTVSS
VL: EIVLTQSPGTLSLSPGERATLSCRASQSVSSDYLAWYQQKPGQAPSLLIYGVSTRATGIPDRISGSGSGTDFTLTISRLEPEDFAVYYCHQYGTSPWTFGQGTKVEIK
B2: ADI-41287 (antibody, V domains shown)
VH: EVQLVESGGGLVQPGRSLRLSCAASGFTFDDYAMHWVRQAPGKGLEWVSSISWHSADIGYAASVEGRFTISRDNAKNSLFLQMNSLRPEDTALYYCAKEIVSTSWYSGYFQDWGQGTLVTVSS
VL: QPVLTQPRSVSGSPGQSVTISCTGTSSDVGDYNYVSWYQQHPGKAPKLMIYDVSKRPSGVPDRFSGSKSGNTASLTISGLQGEDEADYYCCSYAGRHTFVFGTATKVTVL
B3: ADI-41293 (antibody, V domains shown)
VH: QVQLQQSGPGLAKPSQTLSLTCTVSGGPISGVDYYWSWIRQPPGKGLEWIGYIYYSGSTYYNPSLKSRVTISVDTSKKQFSLKMSSVTAADTAVYYCARDVGATPYYYYGMDVWGQGTTVTVSS
VL: DIVLTQSPDTLSLSPGERATLSCRASQSVRSNYLAWYQHKPGQAPRLLIYGASSRVAGIPDRFSGSGSGTDFTLTISRLEPEDFAVYYCQQYGSSPPSVTFGGGTKVEIK
B4: ADI-41286 (antibody, V domains shown)
VH: QVQLVQSGAEVKKPGASVKVSCKASGYTFISYGISWVRQAPGQGPEWMGWISTHNGNTNYAQKLQGRVTMTTDTSTSTAYMELRSLRSDDTAVYYCARDERSIAVEVYLGSTFDIWGQGTMVTVSS
VL: DIQVTQSPSSVSASVGDRVTITCRASQGISSWLAWYQQKPGKAPKLLIYAASTLQSGVPSRFSGSGSGTDFTLTISRLQPEDFATYYCQQANIFGVTFGPGTKVDIK
B5: ADI-41279 (antibody, V domains shown)
VH: QVQLVQSGAEVKKAGETLKISCRGPAHTFTSFWIGWVRQTPGKGLEWMGNIYPGDTDTTYSPSFRGQVTISADKSISTAYLQWNSLKASDTAIYYCATRVRHGYSSSGSFESWGQGTMVTVSS
VL: QSVVTQPPSVSGAPGQRITISCTGSNSNTGAGYDVHWYQQLPGAAPKLLIFANNNRPSGVPDRFSGSKSGTSASLAITGLQAEDEADYYCQSYDNSLSAYVFGTGTKLTVL
B6: ADI-41291 (antibody, V domains shown)
VH: QVQLQQWGAGLLKPSETLSLTCVVYGESFSDSGYYWTWIRQPPEKGLEWIGEINHGGSTSYNPSLKSRVTISVDTSENQFSLKVTSVTGADTAVYYCARLRLGCSGGSCYSRFDYWGQGTLVTVSS
VL: DIQLTQSPSSLSASVGDRVTITCRASQSINSYLNWYQQKPGKAPVLLIHAASSLQGGVPSRFSGSGSGTDFTLTISSLQPEDFATYYCQQSYNTRWTFGHGTKVDIK
B7: ADI-41277 (antibody, V domains shown)
VH: QVQLQESGPGLVKPSGTLSLTCAVSGGSITGRNWWSWVRQPPGKELERIGEIYHGGSTEYNPSLKGRVTISVDKSKNQFSLRLNSVTAADTAVYYCARVAHYDSNGYYIGYFDLWGRGTLVTVSS
VL: EIVLTQSPPSLSASVGDRVTITCRASQSISIYLNWYQQKPGKAPKLLIFAASSLQSGVPLRFSGSGSGTDFTLTISSLQPEDFATYYCHQSYSAPWTFGQGTKVDIK
B8: ADI-41282 (antibody, V domains shown)
VH: QVQLVQSGGGVVQPGRSLRLSCAASGFMFTIYSMHWVRQAPGKGLEWVAVISNDGVNKYYSDSVKGRFTISRDNSKNTLYLQMNNLRAEDTAVYYCASDIVVLVTATDYWGQGTLVTVSS
VL: ETTLTQSPVTLSLSPGERATLSCRTSQSFSSPLLAWYQQKPGQAPRLLIYGASNRATGIPDRFSGSGSGTDFTLTISRLEPVDFAVYYCQQYGSSPYTFGQGTKLEIK
B9: ADI-41292 (antibody, V domains shown)
VH: EVQLLESGGGVVQPGRSLRLSCAASGFSFSSYGIHWVRQAPGKGLECVALMSYDGSEKYYADSVKGRFTISRDNSKNTLYLHMNSLRREDTAVYYCAKGSHLRWSHLDYYFHLWGRGTLVTVSS
VL: DIVMTQSPSTLSASVGDRVTITCRASQSLSTWLAWYQQKPGKAPKLLISDASNLESGVPSRFSGRGSGTEFTLTISGLQPDDFATYYCQQERTFGQGTKVDIK
B10: ADI-41285 (antibody, V domains shown)
VH: QVQLVQSGAEVKKPGSSVKVSCKASGGTFSYYAISWVRQAPGQGLEWMGGIIPILGTVKNAQKFQGRVTITADKITSIAYMELSSLRHEDTAVYYCARDYYDSSGYYYNGYGMDVWGQGTTVTVSS
VL: QSVLIQPPSASGTPGQRVTISCSGSSSNIGSNYVYWYQQLPGTAPKLLIYRNDQRPSGVPDRFSGSKSGTSASLAISGLRSGDEADYYCAAWDDSLGGPIWVFGGGTKLTVL
B11: ADI-41307 (antibody, V domains shown)
VH: QVQLVESGGGLVKPGGSLRLSCAASGFPLSPYALNWVRQAPGKGLEWVSSITSSSAYIYYADSVKGRFTVSRDNPTNSLYLQMNSLRAEDTAVYYCARTIPQHYYDNNGDYYNYGMDVWGQGTTVTVSS
VL: DIVLTQSPATLSVSPGQRITLSCRASQTVRSNLAWYQQKPGQPPRLLIYGASTRATGVPARFTGSGSGTEFTLTITSLQSDDFAVYYCHQYNDRPLTFGPGTKVEIK
B12: ADI-41297 (antibody, V domains shown)
VH: QVQLVQSGAEVKKPGSSVKVSCKASGGTFSTDAISWVRQAPGQGLEWMGGIIPLFGTANYAQKFQGRVTITADESTSTAYMELNSLRSVDTAVYYCGRTGAFDGEVVVRPHLDLWGQGTLVTVSS
VL: QPVLTQPASVSGSPGQSITISCTGTSSDVGGYDYVSWYQHHPGKAPKLMIYEVSNRPSGVSNRFSGSKSGNTASLTISGLQADDEAAYYCSSYTRSNTLLFGGGTKLTVL
B13: ADI-41283 (antibody, V domains shown)
VH: QVTLKESGPTLVKPTQTLTLTCTFSGFSLSTFGVAVGWIRQPPGKALEWLALIYWDDDKRYSPSLKSRLTITKDISKNQVVLTMTNMDPVDTATYYCAHRLRSLTARGVFDIWGQGTTVTVSS
VL: DIRLTQSPSSLSASVGDRVTITCRASQSINNFLNWYQQRPGKAPTLLIYSASSLQSGVPSRFSGSGSGTDFTLTISSLQPEDFATYFCQQTDSFPWTFGQGTKVEIK
B14: ADI-41306 (antibody, V domains shown)
VH: QVQLVESGPRLVKPSQTLSLTCTVSGGSIYRGDYDWNWIRQPPGKGLEWIGYISYTGNTHYNSSLKSRLSISADTSGTHFSLKLSSVTAADTAIYYCARDVGYGGNAAHYYYYAMDVWGQGTTVTVSS
VL: ETTLTQSPATLSLSPGERATLSCRASQSVGSSLAWYQQKVGQAPRLLIYDASSRVTGIPARFSGSGSGTDFTLTISSLEPGDFAVYYCQQRSNSLTFGGGTKVEIK
B15: ADI-41303 (antibody, V domains shown)
VH: QVQLVQSGGGLVRPGGSLRVSCAASGFIFNNYALTWVRQAPGKGLEWVSAISGSGSSTYYADSVKGRFTISRENSNNRLYLQLSGLRAEDTAVYFCARVRGLVWFEGRIDPYPNVFDYWGQGTLVTVSS
VL: DIVLTQSPGTLSLSPGERATLSCRASQSVSNDYLAWYQQKPGQAPRLLIYDASSRAIGIPDRFSGSGSGTDFTLIISRLEPEDFAVYYCHHPGKFGQGTKVEIK
B16: ADI-41304 (antibody, V domains shown)
VH: EVQLVESGPGLVKPSQTLSLTCTVSGGSIRSHDYYWSWIRQPPGKGLEWIGYSYYSGSTYYNPSLKSRVIISLDTSKNQFSLNLTSVTAADTAMYYCARDRPHTSSWIPGWFDPWGQGTLVTVSS
VL: SYELTQPPSASGTPGQRVTISCSGSSSNIGSNTVSWYQQFPGKAPKLLIYSNNERPSGGPDRFSGSKSGTSASLAIGGLQSEDEANYYCAAWDDSLYAVVFGGGTKLTVL
B17: ADI-41299 (antibody, V domains shown)
VH: EVQLVESGGGLVHPGRSLRLSCGASGFTFRSFAMHWVRQAPGKGLEWVAVISYDGSDEYYADSVKGRFTISRDNSRNTLFLQMNRLRPEDTAIYYCARAYCSTSNCPVLDYWGQGTLVTVSS
VL: QSVLIQPASVSGSPGQSITISCTGTSSDVGGYSLVSWYQQHPGKAPKLIIFEGNKRPAGVSDRFSGSKYGDTASLTISGLQAEDEADYYCCSYAGGHSVFGGGTKVTVL
B18: ADI-41278 (antibody, V domains shown)
VH: EVQLVESGPALVKPTQTLTLTCTFSGFSLSTKRMGVSWIRQPPGKALEWLARIDWDDDKFYSTSLKTRLTISKDTSKNQVVLTLANMDPVDTATYFCARTTVYASGGYYLYYLDYWGQGTLVTVSS
VL: DIVMTQTPSSLSASVGDRVTLTCRASQRIASYVNWYHQKPGKAPNLLIYAASNLQSGVPSRFSGSGSGTDFTLTISSLQPEDFATYYCQQSYSTPLTFGQGTKLEIK
B19: ADI-41284 (antibody, V domains shown)
VH: QVQLVQSGGGLVKPGGSLRLSCAASGFTFSNAWMSWVRQAPGKGLEWVGRIKSEVDGGTADYAANVKGRLTISRDDSKNMMYLQMNSLKTEDTAVYYCTTDPGVGWIFGEVKLFRTDPEYWGQGTLVTVSS
VL: QSVLTQPPSVSAAPGQKVTISCSGSSSNIGNHYVSWYQQLPGTSPKLLIYDNNKRPSGIPDRFSGSKSGTSATLGITGLQPGDEADYYCGTWDSSLSAVRVFGGGTKVTVL
B20: ADI-41281 (antibody, V domains shown)
VH: QVQLVQSGAEVKKPGASVKVSCKASGYSFTNHGIHWVRQAPGQRLEWMGWINVANGFTAYSQNLQGRVTFTRDTSASTAYLELTSLRSEDTAVYHCARDESYCSAGYCYLYFDYWGQGTTVTVSS
VL: DIQVTQSPSSLSASVGDRVTITCRASQNIITYVNWYQQKPGKAPELLIFGASSVQSGVPSRFSGSGSGTDFTLTISSLRPDDFATYYCQQSYSNPRTFGGGTKVEIK

Each binder was assayed against RSV postfusion F (postF, F deltaFP) (Respiratory syncytial virus) (assay: BLI, IgG on sensor, 100 nM antigen).

Binder | Kd [nM]
B1 | 0.483
B2 | 0.598
B3 | 0.411
B4 | 5.49
B5 | 47.8
B6 | 1.2
B7 | 0.78
B8 | 1.25
B9 | 195
B10 | 0.412
B11 | 0.83
B12 | 0.628
B13 | 7.95
B14 | 0.454
B15 | 0.944
B16 | 0.33
B17 | 2.25
B18 | 0.482
B19 | 0.547
B20 | 1.58

What follows are binders tested against RSV prefusion F (preF, DS-Cav1) (Respiratory syncytial virus) (assay: BLI, IgG on sensor, 100 nM antigen).

Binder | Kd [nM]
B1 | 3.62
B2 | 3.22
B3 | 0.496
B4 | 7.6
B5 | 50.4
B6 | 2.98
B7 | 3.6
B8 | 3.25
B9 | 883
B10 | 0.511
B11 | 2.99
B12 | 3.91
B13 | 27.4
B14 | 0.462
B15 | 2.96
B16 | 0.338
B17 | 3.48
B18 | 1.28
B19 | 3.06
B20 | 6.7
